Blank lines part the entries; values can stand above or below the binder they belong to.
What was measured:
[1] = biological target: FAM118B-L32R, full length, tagged with mEGFP or with mCherry, Q9BPY3; assay: FCCS (fluorescence cross-correlation spectroscopy) in living U2OS cells; settings: chain shown with the change; mEGFP-F122R (green label) coexpressed with mCherry-L32R (red label); n = 15 cells per condition; read off a plot
[2] = biological target: FAM118B-F122R, full length, tagged with mEGFP or with mCherry, Q9BPY3; assay: as above; settings: chain shown with the change, n = 15 cells per condition, read off a plot

response [1]: 88%
B1: mEGFP–FAM118B WT (full-length human FAM118B fused at its N terminus to mEGFP), Q9BPY3 binder:F122R; target:L32R (protein)
chain: MASTGSQASDIDEIFGFFNDGEPPTKKPRKLLPSLKTKKPRELVLVIGTGISAAVAPQVPALKSWKGLIQALLDAAIDFDLLEDEESKKFQKCLHEDKNLVHVAHDLIQKLSPRTSNVRSTRFKDCLYEVFDDLESKMEDSGKQLLQSVLHLMENGALVLTTNFDNLLELYAADQGKQLESLDLTDEKKVLEWAQEKRKLSVLHIHGVYTNPSGIVLHPAGYQNVLRNTEVMREIQKLYENKSFLFLGCGWTVDDTTFQALFLEAVKHKSDLEHFMLVRRGDVDEFKKLRENMLDKGIKVISYGDDYADLPEYFKRLTCEISTRGTSAGMVREGQLNGSSAAHSEIRGCST

response ([2]; mEGFP-L32R (green label) coexpressed with mCherry-F122R (red label)): 90%
B2: mEGFP–FAM118B WT (full-length human FAM118B fused at its N terminus to mEGFP), Q9BPY3 binder:L32R; target:F122R (protein)
chain: MASTGSQASDIDEIFGFFNDGEPPTKKPRKLRPSLKTKKPRELVLVIGTGISAAVAPQVPALKSWKGLIQALLDAAIDFDLLEDEESKKFQKCLHEDKNLVHVAHDLIQKLSPRTSNVRSTFFKDCLYEVFDDLESKMEDSGKQLLQSVLHLMENGALVLTTNFDNLLELYAADQGKQLESLDLTDEKKVLEWAQEKRKLSVLHIHGVYTNPSGIVLHPAGYQNVLRNTEVMREIQKLYENKSFLFLGCGWTVDDTTFQALFLEAVKHKSDLEHFMLVRRGDVDEFKKLRENMLDKGIKVISYGDDYADLPEYFKRLTCEISTRGTSAGMVREGQLNGSSAAHSEIRGCST

response ([2]; mEGFP-F122R (green label) coexpressed with mCherry-F122R (red label)): 6%
B3: mEGFP–FAM118B WT (full-length human FAM118B fused at its N terminus to mEGFP), Q9BPY3 binder:F122R; target:F122R (protein)
chain: MASTGSQASDIDEIFGFFNDGEPPTKKPRKLLPSLKTKKPRELVLVIGTGISAAVAPQVPALKSWKGLIQALLDAAIDFDLLEDEESKKFQKCLHEDKNLVHVAHDLIQKLSPRTSNVRSTRFKDCLYEVFDDLESKMEDSGKQLLQSVLHLMENGALVLTTNFDNLLELYAADQGKQLESLDLTDEKKVLEWAQEKRKLSVLHIHGVYTNPSGIVLHPAGYQNVLRNTEVMREIQKLYENKSFLFLGCGWTVDDTTFQALFLEAVKHKSDLEHFMLVRRGDVDEFKKLRENMLDKGIKVISYGDDYADLPEYFKRLTCEISTRGTSAGMVREGQLNGSSAAHSEIRGCST
